# Assay results taken from paper PMC4005663.
# System: 6xHis-Brd4(1-720) (human)
# Test: streptavidin bead pull-down, Coomassie, Hill fit
# Conditions: no added Mg2+; DNA pull-down: 50 mM HEPES pH 7.5, 100 mM NaCl, 0.5% NP40, 2 mM BME, 8.3 uM DNA; HTRF: 25 mM Tris pH 7.4, 150 mM NaCl, 2 mM MgCl2, 0.1% NP40, 1 mg/ml BSA …
row,Substance,Kd [nM]
1,40-bp SMYD1 DNA,2140

# Biological target: full-length GST–MLV IN(1–408) (murine leukemia virus (MLV))
# Test: pull-down
# Conditions: not given
# full-length GST–MLV IN(1–408) (murine leukemia virus (MLV)), sequence (P03355 1331-1738 limits assumed): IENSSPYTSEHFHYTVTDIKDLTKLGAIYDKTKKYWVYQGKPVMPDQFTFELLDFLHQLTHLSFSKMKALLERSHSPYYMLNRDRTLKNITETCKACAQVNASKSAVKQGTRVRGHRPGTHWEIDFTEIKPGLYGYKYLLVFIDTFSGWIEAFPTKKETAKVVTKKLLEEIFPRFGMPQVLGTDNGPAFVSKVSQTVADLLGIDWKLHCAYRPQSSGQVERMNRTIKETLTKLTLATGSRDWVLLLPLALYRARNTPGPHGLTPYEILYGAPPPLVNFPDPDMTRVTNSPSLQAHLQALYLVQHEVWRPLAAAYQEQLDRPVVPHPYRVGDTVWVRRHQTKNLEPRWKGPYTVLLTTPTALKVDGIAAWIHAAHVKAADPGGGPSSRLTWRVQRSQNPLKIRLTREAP
row,Substance,Kd [nM]
1,6xHis–Brd4 B/BID(462–599) (from UniProt O60885 462-599) (domain or fragment),> 2000
2,6xHis–Brd4 ET(600–678) (from UniProt O60885 600-678) (domain or fragment),205
3,6xHis–Brd4 ET/SEED(600–720) (from UniProt O60885 600-720) (domain or fragment),206
4,6xHis–Brd4(1–720) (from UniProt O60885 1-720) (natural protein),58.4
5,6xHis–cBrd4(462–720) (from UniProt O60885 462-720) (domain or fragment),77.3
6,6xHis–nBrd4(1–461) (from UniProt O60885 1-461) (domain or fragment),> 2000
